Assay results as given in patent US20150038408A1 (University of Washington, published 2015).
Read-outs that look alike come from different tables or passages of the source.

B1: HB36.1 (Asp47Ser) (designed binder)
chain: MSNAMDGQQLNRLLLEWIGAWDPFGLGKDAYDVEAEAVLQAVYETESAFDLAMRIMWIYAFAFNRPIPFPHAQKLARRLLELKQAASSPLPLE
B2: HB80.1 (Met26Thr, Asn36Lys) (designed binder)
chain: MASTRGSGRPWDFSENLAFELALAFTNKDTPDRWAKVAQYVSGRTPEEVKKHYEILVEDIKYIESGKVPFPNYRTTGGNMKTDEKRFRNLKIRLE

Columns and labels:
[1] = biological target: T1, A/South Carolina/1/1918 (H1N1) hemagglutinin ectodomain (Influenza A virus A/South …)
[2] = biological target: T1, A/South Carolina/1/1918 (H1N1) …; remark: listed apart in the source
[3] = biological target: T1, A/South Carolina/1/1918 (H1N1) …; remark: listed apart in the source
[4] = biological target: T1, A/South Carolina/1/1918 (H1N1) …; remark: listed apart in the source

Binder	Kd [1] [nM]	Kd [2] [nM]	fold increase in binding affinity against HB36 [3] [fold]	Kd [4] [nM]
B1	2 to 5	5	~40	–
B2	–	7.5	–	7.5
